According to patent US20260226142A1:

Molecular target: Cys-HLA (Staphylococcus aureus)

B1: Bm28H12 (VHH)
VHH: QVQLVESGGSVVQAGGSLRLSCTASGRNFNSYAMGWFRRPPGEQRDFIAAIIRSTGKTTYADSDSVKGRFTISKDSSGNTVYLQMNNLKPEDTAIYYCAGGDAGPYAFGYDYWGQGTQVTVSS
Q: B1 was tested. Which Kd did it give?
A: The Kd was 0.1 nM.
